Numbering of substitutions follows the chain as printed. Names may count otherwise.
T1: TrSqrF; SqrF WT (Thiocapsa roseopersicina, UniProt A0A1Z2RRG1)
T1 sequence (A0A1Z2RRG1 1-375): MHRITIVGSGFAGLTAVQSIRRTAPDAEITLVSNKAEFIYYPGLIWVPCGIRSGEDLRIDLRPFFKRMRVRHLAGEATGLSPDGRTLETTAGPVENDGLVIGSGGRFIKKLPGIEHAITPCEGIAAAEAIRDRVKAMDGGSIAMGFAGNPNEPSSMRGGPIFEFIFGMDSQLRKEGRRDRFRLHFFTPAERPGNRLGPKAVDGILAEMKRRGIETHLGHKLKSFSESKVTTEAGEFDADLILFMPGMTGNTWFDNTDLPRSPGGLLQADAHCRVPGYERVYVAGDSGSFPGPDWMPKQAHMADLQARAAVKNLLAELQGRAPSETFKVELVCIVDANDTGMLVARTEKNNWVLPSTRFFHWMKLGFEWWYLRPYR

B1: SqrF CTD (Thiocapsa roseopersicina) (protein)
chain: MHRITIVGSGFAGLTAVQSIRRTAPDAEITLVSNKAEFIYYPGLIWVPCGIRSGEDLRIDLRPFFKRMRVRHLAGEATGLSPDGRTLETTAGPVENDGLVIGSGGRFIKKLPGIEHAITPCEGIAAAEAIRDRVKAMDGGSIAMGFAGNPNEPSSMRGGPIFEFIFGMDSQLRKEGRRDRFRLHFFTPAERPGNRLGPKAVDGILAEMKRRGIETHLGHKLKSFSESKVTTEAGEFDADLILFMPGMTGNTWFDNTDLPRSPGGLLQADAHCRVPGYERVYVAGDSGSFPGPDWMPKQAHMADLQARAAVKNLLAELQGRAPSETFKVELVCIVDANDTGMLVARTEKNNWVLPST
notes: C-terminal alpha-helix deletion, stop codons after Thr356; N-terminal StrepII tag, expressed in T. roseopersicina FOQRON
B2: TrSqrF; SqrF WT (Thiocapsa roseopersicina) (protein)
chain: T1 sequence (A0A1Z2RRG1 1-375)
B3: TrSqrF; SqrF WT (Thiocapsa roseopersicina; V331F) (protein)
chain: T1 sequence (A0A1Z2RRG1 1-375) with V331F
B4: TrSqrF; SqrF WT (Thiocapsa roseopersicina; I333F) (protein)
chain: T1 sequence (A0A1Z2RRG1 1-375) with I333F
B5: TrSqrF; SqrF WT (Thiocapsa roseopersicina; F366A) (protein)
chain: T1 sequence (A0A1Z2RRG1 1-375) with F366A
B6: TrSqrF; SqrF WT (Thiocapsa roseopersicina; F366Y) (protein)
chain: T1 sequence (A0A1Z2RRG1 1-375) with F366Y
B7: TrSqrF; SqrF WT (Thiocapsa roseopersicina; V331A) (protein)
chain: T1 sequence (A0A1Z2RRG1 1-375) with V331A

Target: T1, TrSqrF; SqrF WT
Experiment: UV-visible absorption of purified protein; in-gel FAD fluorescence
Assay type: binding
Conditions: co-purified cofactor

**Q.** For Cc1cc2nc3c(=O)[nH]c(=O)nc-3n(C[C@H](O)[C@H](O)[C@H](O)COP(=O)(O)OP(=O)(O)OC[C@H]3O[C@@H](n4cnc5c(N)ncnc54)[C@H](O)[C@@H]3O)c2cc1C [FAD, flavin adenine dinucleotide], which “UV-visible absorption of purified protein; in-gel FAD fluorescence” value is on record?
**A.** Absorption maxima at these wavelengths indicated that all TrSqrF variants contained the FAD cofactor

Substrate: CC1=C(C)C(=O)C(C)=C(C)C1=O
Experiment: purified protein
Assay type: biochemical, Thiocapsa roseopersicina
Conditions: 200 µM sulfide, 50 mM Tris-HCl pH 8.0, 25 °C, anaerobic

**Q.** How did the Km turn out when B1 was run?
**A.** 70.71 ± 44.78 µM

**Q.** What about the kcat of the same molecule?
**A.** 0.96 ± 0.24 s⁻¹

**Q.** And the kcat/Km?
**A.** 14000 M⁻¹ s⁻¹

**Q.** Which results are given for B2?
**A.** Km: 27.39 ± 2.47 µM; kcat: 1.25 ± 0.04 s⁻¹; kcat/Km: 46000 M⁻¹ s⁻¹

**Q.** With B3 as the molecule, how does the Km read?
**A.** 40.23 ± 7.36 µM

**Q.** What about the kcat of the same molecule?
**A.** 0.72 ± 0.02 s⁻¹

**Q.** And the kcat/Km?
**A.** 18000 M⁻¹ s⁻¹

**Q.** B4 was tested. Which Km did it give?
**A.** 102.7 ± 69.9 µM

**Q.** And the kcat?
**A.** 0.72 ± 0.21 s⁻¹

**Q.** What about the kcat/Km of the same molecule?
**A.** 7000 M⁻¹ s⁻¹

**Q.** What does the source list for B5?
**A.** Km: 46.19 ± 2.53 µM; kcat: 0.26 ± 0.01 s⁻¹; kcat/Km: 6000 M⁻¹ s⁻¹

**Q.** Which Km does the source give for B6 here?
**A.** 79.30 ± 14.68 µM

**Q.** And the kcat?
**A.** 0.57 ± 0.08 s⁻¹

**Q.** What about the kcat/Km of the same molecule?
**A.** 7000 M⁻¹ s⁻¹

Substrate: CCCCCCCCCCC1=C(C)C(=O)C(OC)=C(OC)C1=O
Experiment: purified protein
Assay type: biochemical, Thiocapsa roseopersicina
Conditions: 200 µM sulfide, 50 mM Tris-HCl pH 8.0, 25 °C, anaerobic

**Q.** With B1 as the molecule, how does the Km read?
**A.** 18.99 ± 0.67 µM

**Q.** What about the kcat of the same molecule?
**A.** 4.9 ± 0.8 s⁻¹

**Q.** What about the kcat/Km of the same molecule?
**A.** 268000 M⁻¹ s⁻¹

**Q.** With B2 as the molecule, how does the Km read?
**A.** 24.47 ± 6.42 µM

**Q.** And the kcat?
**A.** 8.37 ± 0.33 s⁻¹

**Q.** What about the kcat/Km of the same molecule?
**A.** 342000 M⁻¹ s⁻¹

**Q.** With B3 as the molecule, how does the Km read?
**A.** 12.33 ± 0.86 µM

**Q.** And the kcat?
**A.** 3.64 ± 1.06 s⁻¹

**Q.** What about the kcat/Km of the same molecule?
**A.** 295000 M⁻¹ s⁻¹

**Q.** Which Km does the source give for B7 here?
**A.** 18.99 ± 6.10 µM

**Q.** What about the kcat of the same molecule?
**A.** 2.47 ± 0.33 s⁻¹

**Q.** And the kcat/Km?
**A.** 130000 M⁻¹ s⁻¹

**Q.** What does the source list for B4?
**A.** Km: 13.98 ± 7.20 µM; kcat: 1.2 ± 0.48 s⁻¹; kcat/Km: 86000 M⁻¹ s⁻¹

**Q.** Which results are given for B5?
**A.** Km: 9.38 ± 1.97 µM; kcat: 1.97 ± 0.28 s⁻¹; kcat/Km: 210000 M⁻¹ s⁻¹

**Q.** Which results are given for B6?
**A.** Km: 10.03 ± 1.39 µM; kcat: 3.17 ± 0.82 s⁻¹; kcat/Km: 316000 M⁻¹ s⁻¹
